From paper PMC10786891, “Massively parallel profiling of RNA-targeting CRISPR-Cas13d”
Where a chain is given by its changes, count along the chain named. Names may count otherwise.

T1: EsCas13d, nuclease-dead (Eubacterium siraeum, UniProt B0MS50, R295A;H300A;R849A;H854A)
T1 sequence: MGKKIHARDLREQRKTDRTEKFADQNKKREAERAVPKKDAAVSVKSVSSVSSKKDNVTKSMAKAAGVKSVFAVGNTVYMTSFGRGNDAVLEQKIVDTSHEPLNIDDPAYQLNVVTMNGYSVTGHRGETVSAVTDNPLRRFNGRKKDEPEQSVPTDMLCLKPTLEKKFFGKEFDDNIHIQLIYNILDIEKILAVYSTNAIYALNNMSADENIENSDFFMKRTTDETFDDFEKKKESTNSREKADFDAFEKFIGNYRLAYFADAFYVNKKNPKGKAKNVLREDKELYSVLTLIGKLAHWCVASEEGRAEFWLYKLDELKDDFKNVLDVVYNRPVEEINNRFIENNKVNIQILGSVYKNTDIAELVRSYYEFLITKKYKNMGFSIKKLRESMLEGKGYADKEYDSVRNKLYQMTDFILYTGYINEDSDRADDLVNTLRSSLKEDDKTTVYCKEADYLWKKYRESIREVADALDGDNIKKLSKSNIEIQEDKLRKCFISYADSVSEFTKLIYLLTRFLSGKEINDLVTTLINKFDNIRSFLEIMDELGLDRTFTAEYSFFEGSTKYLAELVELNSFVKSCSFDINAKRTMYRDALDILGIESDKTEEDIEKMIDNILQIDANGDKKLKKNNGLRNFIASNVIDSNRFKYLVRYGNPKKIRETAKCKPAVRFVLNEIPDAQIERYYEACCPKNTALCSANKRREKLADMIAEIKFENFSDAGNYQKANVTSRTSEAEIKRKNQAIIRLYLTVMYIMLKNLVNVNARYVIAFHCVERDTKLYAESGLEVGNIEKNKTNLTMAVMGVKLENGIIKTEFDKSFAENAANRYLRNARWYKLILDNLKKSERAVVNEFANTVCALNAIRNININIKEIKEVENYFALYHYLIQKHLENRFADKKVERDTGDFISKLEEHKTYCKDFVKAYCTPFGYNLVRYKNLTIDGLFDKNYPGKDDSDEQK

B1: target 3 G4C,U7A (mixed)
RNA 1: CACCCGUGCAAAAUUGCAGGGGUCUAAAACGACCUGAAUAUUUCAGAUCAAA
RNA 2: GGGAAUGGAUCCACAUCUACGAAUUCGUUUUUGAUCUGAAAUAUACACGUCUGCAGAUCGGAAGAGCACACGU
B2: target 3 insA 3' of 3,insC 3' of 2 (mixed)
RNA 1: B1 RNA 1
RNA 2: GGGAAUGGAUCCACAUCUACGAAUUCGUUUUUGAUCUGAAAUAUUCAGGAUCCUGCAGAUCGGAAGAGCACACGU
B3: target 3 insU 3' of 5,insG 3' of 2 (mixed)
RNA 1: B1 RNA 1
RNA 2: B2 RNA 2 with G48U, A50G, C52G
B4: target 3 insA 3' of 7,insG 3' of 2 (mixed)
RNA 1: B1 RNA 1
RNA 2: B2 RNA 2 with C46A, A47C, G48A, A50G, C52G
B5: target 3 insC 3' of 22,insA 3' of 2 (mixed)
RNA 1: B1 RNA 1
RNA 2: GGGAAUGGAUCCACAUCUACGAAUUCGUUUCUUGAUCUGAAAUAUUCAGGUACUGCAGAUCGGAAGAGCACACGU
B6: target 3 A5G,A11G (mixed)
RNA 1: B1 RNA 1
RNA 2: B1 RNA 2 with A41G, A45U, A47G, C48G
B7: target 3 insC 3' of 5,insU 3' of 1 (mixed)
RNA 1: B1 RNA 1
RNA 2: B2 RNA 2 with G48C, A50G, C53U
B8: target 3 insU 3' of 22,insA 3' of 6 (mixed)
RNA 1: B1 RNA 1
RNA 2: B5 RNA 2 with C31U, G49A, U51G, A52U
B9: target 3 G4U,U21A (mixed)
RNA 1: B1 RNA 1
RNA 2: B1 RNA 2 with U31A, A45U, C48U
B10: target 3 insC 3' of 4,insU 3' of 1 (mixed)
RNA 1: B1 RNA 1
RNA 2: B2 RNA 2 with G49C, A50G, C53U
B11: target 3 U2A,U20C (mixed)
RNA 1: B1 RNA 1
RNA 2: B1 RNA 2 with U32C, A45U, C48G, U50A
B12: target 3 C1A,G14U (mixed)
RNA 1: B1 RNA 1
RNA 2: B1 RNA 2 with G38U, A45U, C48G, C51A
B13: target 3 del1,del2 (mixed)
RNA 1: B1 RNA 1
RNA 2: GGGAAUGGAUCCACAUCUACGAAUUCGUUUUUGAUCUGAAAUAUUCAGGUGCAGAUCGGAAGAGCACACGU
B14: target 3 A5U,A11G (mixed)
RNA 1: B1 RNA 1
RNA 2: B1 RNA 2 with A41G, A45U, A47U, C48G
B15: target 3 del6,del8 (mixed)
RNA 1: B1 RNA 1
RNA 2: B13 RNA 2 with U45A, C46G, A47G, G48U, G49C
B16: target 3 G19U,U22G (mixed)
RNA 1: B1 RNA 1
RNA 2: B1 RNA 2 with U30G, G33U, A45U, C48G
B17: target 3 C1U,G14U (mixed)
RNA 1: B1 RNA 1
RNA 2: B1 RNA 2 with G38U, A45U, C48G, C51U
B18: target 3 insC 3' of 4,insC 3' of 2 (mixed)
RNA 1: B1 RNA 1
RNA 2: B2 RNA 2 with G49C, A50G
B19: target 3 insG 3' of 6,insG 3' of 6 (mixed)
RNA 1: B1 RNA 1
RNA 2: B2 RNA 2 with A47G, G49A, A50G, U51G, C52U
B20: target 3 insC 3' of 4,insA 3' of 1 (mixed)
RNA 1: B1 RNA 1
RNA 2: B2 RNA 2 with G49C, A50G, C53A
B21: target 3 insC 3' of 5,insA 3' of 2 (mixed)
RNA 1: B1 RNA 1
RNA 2: B2 RNA 2 with G48C, A50G, C52A
B22: target 3 insA 3' of 10,insA 3' of 7 (mixed)
RNA 1: B1 RNA 1
RNA 2: B2 RNA 2 with U44A, C46U, G48C, G49A, A50G, U51G, C52U
B23: target 3 C6U (mixed)
RNA 1: B1 RNA 1
RNA 2: B1 RNA 2 with A45U, C46U, C48G
B24: target 3 insG 3' of 5,insC 3' of 5 (mixed)
RNA 1: B1 RNA 1
RNA 2: B2 RNA 2 with G49C, A50G, U51G, C52U
B25: target 3 insC 3' of 5,insG 3' of 5 (mixed)
RNA 1: B1 RNA 1
RNA 2: B2 RNA 2 with G48C, A50G, U51G, C52U
B26: target 3 del1,del14 (mixed)
RNA 1: B1 RNA 1
RNA 2: B13 RNA 2 with G38A, A41U, U42A, A43U, U45C, C46A, A47G, G49U
B27: target 3 insA 3' of 6,insU 3' of 4 (mixed)
RNA 1: B1 RNA 1
RNA 2: B2 RNA 2 with G48A, A50U, U51G, C52U
B28: target 3 insU 3' of 6,insC 3' of 3 (mixed)
RNA 1: B1 RNA 1
RNA 2: B2 RNA 2 with A47U, G48A, A50G, U51C, C52U
B29: target 3 C6A,A11C (mixed)
RNA 1: B1 RNA 1
RNA 2: B1 RNA 2 with A41C, A45U, C46A, C48G
B30: target 3 insC 3' of 7,insA 3' of 6 (mixed)
RNA 1: B1 RNA 1
RNA 2: B2 RNA 2 with A47C, G48A, G49A, A50G, U51G, C52U
B31: target 1 A9G,U10C (mixed)
RNA 1: CACCCGUGCAAAAAUGCAGGGGUCUAAAACUGAGCGGAUAACCUCUCUAUGG
RNA 2: GGGAAUGGAUCCACAUCUACGAAUUCGUACCAUAGAGAGGUCGUCCGCUCACCGAGAUCGGAAGAGCACACGU
B32: target 1 insC 3' of 16,insC 3' of 14 (mixed)
RNA 1: B31 RNA 1
RNA 2: GGGAAUGGAUCCACAUCUACGAAUUCGUACCAUAGACGACGGUUAUCCGCUCACCGAGAUCGGAAGAGCACACGU
B33: target 1 C2U,G12A (mixed)
RNA 1: B31 RNA 1
RNA 2: B31 RNA 2 with G40A, C42U, G43A, C50U

What follows are binders tested against T1, EsCas13d, nuclease-dead (assay: crRNA (strand 1, pre-loaded); Mg2+; 40 mM Tris-HCl pH 7.5, 150 mM NaCl, 6 mM MgCl2, 1 mM DTT, 0.1% Tween-20, 0.2 mg/ml BSA; 25 C; 10 min per concentration, then washed). Settings: tags: His6-TwinStrep-SUMO cleaved; N-terminal SNAP kept (SNAP-Surface 488); label: 3' end held by stalled T7 RNA polymerase.

Question: How did the Kd turn out when B1 was run?
Answer: 27.6 ± 3.05 nM

Question: How did the Kd turn out when B2 was run?
Answer: 120 ± 50 nM

Question: How did the Kd turn out when B3 was run?
Answer: 6.95 ± 1 nM

Question: B4 was tested. Which Kd did it give?
Answer: 28.2 ± 4.15 nM

Question: B5 was tested. Which Kd did it give?
Answer: 59 ± 10 nM

Question: For B6, which Kd is on record?
Answer: 73.5 ± 28.5 nM

Question: With B7 as the binder, how does the Kd read?
Answer: 10.8 ± 1.25 nM

Question: B8 was tested. Which Kd did it give?
Answer: 7.2 ± 0.55 nM

Question: Which Kd does the source give for B9 here?
Answer: 20.6 ± 2.15 nM

Question: With B10 as the binder, how does the Kd read?
Answer: 72.5 ± 33.5 nM

Question: How did the Kd turn out when B11 was run?
Answer: 74.5 ± 24 nM

Question: How did the Kd turn out when B12 was run?
Answer: 79 ± 30.5 nM

Question: How did the Kd turn out when B13 was run?
Answer: 44.5 ± 2.55 nM

Question: With B14 as the binder, how does the Kd read?
Answer: 100 ± 45 nM

Question: For B15, which Kd is on record?
Answer: 70.5 ± 11 nM

Question: B16 was tested. Which Kd did it give?
Answer: 108 ± 15 nM

Question: For B17, which Kd is on record?
Answer: 72.5 ± 19 nM

Question: With B18 as the binder, how does the Kd read?
Answer: 73 ± 24 nM

Question: Which Kd does the source give for B19 here?
Answer: 23.6 ± 3.2 nM

Question: For B20, which Kd is on record?
Answer: 69.5 ± 28.5 nM

Question: B21 was tested. Which Kd did it give?
Answer: 15.8 ± 1.6 nM

Question: B22 was tested. Which Kd did it give?
Answer: 52 ± 8 nM

Question: B23 was tested. Which Kd did it give?
Answer: 13.2 ± 1.05 nM

Question: For B24, which Kd is on record?
Answer: 32.7 ± 4.05 nM

Question: Which Kd does the source give for B25 here?
Answer: 5.57 ± 0.52 nM

Question: With B26 as the binder, how does the Kd read?
Answer: 110 ± 55 nM

Question: B27 was tested. Which Kd did it give?
Answer: 2.25 ± 0.23 nM

Question: Which Kd does the source give for B28 here?
Answer: 28.6 ± 2.95 nM

Question: With B29 as the binder, how does the Kd read?
Answer: 45.2 ± 11.2 nM

Question: B30 was tested. Which Kd did it give?
Answer: 76 ± 14 nM

Question: B31 was tested. Which Kd did it give?
Answer: 27.2 ± 1.4 nM

Question: Which Kd does the source give for B32 here?
Answer: 75 ± 19 nM

Question: For B33, which Kd is on record?
Answer: 4.5 ± 0.14 nM
